The target of this data set is T1, recombinant human Rad17 protein tagged with a Flag epitope at its N terminus, purified from baculovirus infected insect cells.
T1 chain: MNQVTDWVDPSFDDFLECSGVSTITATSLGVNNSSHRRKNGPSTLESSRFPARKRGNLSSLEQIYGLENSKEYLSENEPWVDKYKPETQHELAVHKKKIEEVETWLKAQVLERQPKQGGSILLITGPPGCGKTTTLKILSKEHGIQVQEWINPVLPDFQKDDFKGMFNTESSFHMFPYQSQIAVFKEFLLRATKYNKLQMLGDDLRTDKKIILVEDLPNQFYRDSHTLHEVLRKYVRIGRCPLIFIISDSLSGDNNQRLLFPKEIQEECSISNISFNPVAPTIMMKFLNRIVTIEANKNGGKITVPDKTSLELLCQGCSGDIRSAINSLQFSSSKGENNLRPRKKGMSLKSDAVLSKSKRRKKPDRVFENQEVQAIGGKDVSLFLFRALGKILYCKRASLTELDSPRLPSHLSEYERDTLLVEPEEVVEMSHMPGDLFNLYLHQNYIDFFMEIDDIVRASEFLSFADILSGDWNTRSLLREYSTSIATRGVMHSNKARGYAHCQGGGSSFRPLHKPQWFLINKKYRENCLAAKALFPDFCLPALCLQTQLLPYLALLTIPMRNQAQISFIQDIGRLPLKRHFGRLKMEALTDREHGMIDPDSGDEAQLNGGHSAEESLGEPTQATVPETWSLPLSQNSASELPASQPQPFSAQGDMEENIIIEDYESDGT

B1: ATR-ATRIP complex reconstituted in vitro from purified ATR and purified ATRIP (protein)
chain 1: not shown
chain 2: MAGTSAPGSKRRSEPPAPRPGPPPGTGHPPSKRARGFSAAAAPDPDDPFGAHGDFTADDLEELDTLASQALSQCPAAARDVSSDHKVHRLLDGMSKNPSGKNRETVPIKDNFELEVLQAQYKELKEKMKVMEEEVLIKNGEIKILRDSLHQTESVLEEQRRSHFLLEQEKTQALSDKEKEFSKKLQSLQSELQFKDAEMNELRTKLQTSERANKLAAPSVSHVSPRKNPSVVIKPEACSPQFGKTSFPTKESFSANMSLPHPCQTESGYKPLVGREDSKPHSLRGDSIKQEEAQKSFVDSWRQRSNTQGSILINLLLKQPLIPGSSLSLCHLLSSSSESPAGTPLQPPGFGSTLAGMSGLRTTGSYDGSFSLSALREAQNLAFTGLNLVARNECSRDGDPAEGGRRAFPLCQLPGAVHFLPLVQFFIGLHCQALQDLAAAKRSGAPGDSPTHSSCVSSGVETNPEDSVCILEGFSVTALSILQHLVCHSGAVVSLLLSGVGADSAAGEGNRSLVHRLSDGDMTSALRGVADDQGQHPLLKMLLHLLAFSSAATGHLQASVLTQCLKVLVKLAENTSCDFLPRFQCVFQVLPKCLSPETPLPSVLLAVELLSLLADHDQLAPQLCSHSEGCLLLLLYMYITSRPDRVALETQWLQLEQEVVWLLAKLGVQSPLPPVTGSNCQCNVEVVRALTVMLHRQWLTVRRAGGPPRTDQQRRTVRCLRDTVLLLHGLSQKDKLFMMHCVEVLHQFDQVMPGVSMLIRGLPDVTDCEEAALDDLCAAETDVEDPEVECG
In the case of B1, the “phosphorylated Rad17 on DNA (Ser635P)” value was “human replication protein A (RPA) stimulates the phosphorylation of Rad17 by the ATR-ATRIP complex”.

The values above are taken from patent US20030165934.
